# Measurements: patent US20260000781A1, “FC CONJUGATES INCLUDING AN INHIBITOR OF CD73 AND USES THEREOF” (Cidara Therapeutics, Inc., priority 2022, published 2026)
# Read-outs that look alike come from different tables or passages of the source.
# T1: human CD73 expressed on cells (human) (UniProt P21589)
# T1 sequence (looked up): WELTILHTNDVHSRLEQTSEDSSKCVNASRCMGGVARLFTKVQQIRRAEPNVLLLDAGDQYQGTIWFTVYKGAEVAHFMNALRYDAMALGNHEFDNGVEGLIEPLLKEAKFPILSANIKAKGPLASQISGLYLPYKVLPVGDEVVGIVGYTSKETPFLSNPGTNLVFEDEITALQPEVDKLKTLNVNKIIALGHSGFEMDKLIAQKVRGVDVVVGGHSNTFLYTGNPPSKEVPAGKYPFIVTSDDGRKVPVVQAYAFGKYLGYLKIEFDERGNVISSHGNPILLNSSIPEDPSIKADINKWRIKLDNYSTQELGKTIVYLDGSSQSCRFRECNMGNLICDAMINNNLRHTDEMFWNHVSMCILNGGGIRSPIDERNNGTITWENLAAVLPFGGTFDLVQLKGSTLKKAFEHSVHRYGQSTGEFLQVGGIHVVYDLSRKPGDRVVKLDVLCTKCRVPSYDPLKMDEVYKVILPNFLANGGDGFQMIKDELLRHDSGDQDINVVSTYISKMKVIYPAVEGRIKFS
# T2: recombinant human CD73 enzyme (human) (UniProt P21589)
# T2 sequence (looked up): T1 sequence (looked up)
# B1: Mupadolimab (antibody, INN chains, looked up, V domains shown)
# VH: QVQLVQSGAEVEKPGASVKVSCKASGYTFTSYWITWVRQAPGQGLEWMGDIYPGSGNTNYNEKFKTRVTITADKSTSTAYMELSSLRSEDTAVYYCAKEGGLTTEDYALDYWGQGTLVTVSS
# VL: EIVLTQSPATLSLSPGERATLSCRASKNVSTSGYSYMHWYQQKPGQAPRLLIYLASNLESGIPPRFSGSGYGTDFTLTINNIESEDAAYYFCQHSRELPFTFGQGTKVEIK
# Experiments:
# [1] = target: T1, human CD73 expressed on cells (human); assay: flow cytometry, MDA-MB-231 cells, PE anti-human Fc detection, % labelled cells
# [2] = target: T1, human CD73 expressed on cells (human); assay: cell-based or functional assay
# [3] = target: T1, human CD73 expressed on cells (human); assay: flow cytometry, MDA-MB-231 cells, anti-human Fc detection, gMFI; with 100 nM AB680
# [4] = target: T1, human CD73 expressed on cells (human); assay: flow cytometry, MDA-MB-231 cells, anti-human Fc detection, gMFI; 0 nM AB680
# [5] = target: T1, human CD73 expressed on cells (human); assay: flow cytometry, MDA-MB-231 cells, anti-human Fc detection, gMFI; with 100 µM AMP
# [6] = target: T1, human CD73 expressed on cells (human); assay: flow cytometry, MDA-MB-231 cells, anti-human Fc detection, gMFI; with 1,000 µM AMP
# [7] = target: T1, human CD73 expressed on cells (human); assay: flow cytometry, MDA-MB-231 cells, anti-human Fc detection, gMFI; with 100 µM AMP; remark: listed apart in the source
# [8] = target: T1, human CD73 expressed on cells (human); assay: flow cytometry, MDA-MB-231 cells, anti-human Fc detection, gMFI; with 10 nM AB680
# [9] = target: T1, human CD73 expressed on cells (human); assay: flow cytometry, MDA-MB-231 cells, anti-human Fc detection, gMFI; with 10 µM AMP
# [10] = target: T1, human CD73 expressed on cells (human); assay: flow cytometry, MDA-MB-231 cells, anti-human Fc detection, gMFI
# [11] = target: T1, human CD73 expressed on cells (human); assay: flow cytometry, MDA-MB-231 cells, anti-human Fc detection, gMFI; with 1 nM AB680
# [12] = target: T1, human CD73 expressed on cells (human); assay: flow cytometry, MDA-MB-231 cells, anti-human Fc detection, gMFI; 0 µM AMP
# [13] = target: T1, human CD73 expressed on cells (human); assay: flow cytometry, MDA-MB-231 cells, anti-human Fc detection, gMFI; with 100 nM AB680; remark: listed apart in the source
# [14] = target: T2, recombinant human CD73 enzyme (human); assay: cell-based or functional assay
# [15] = target: T1, human CD73 expressed on cells (human); assay: cell-based or functional assay; remark: listed apart in the source
# [16] = target: T1, human CD73 expressed on cells (human); assay: flow cytometry, MDA-MB-231 cells, anti-human Fc detection, gMFI; no AB680 (column headed No AMP)
# [17] = target: T1, human CD73 expressed on cells (human); assay: flow cytometry, MDA-MB-231 cells, anti-human Fc detection, gMFI; with 1,000 µM AMP; remark: listed apart in the source
# [18] = target: T1, human CD73 expressed on cells (human); assay: flow cytometry, MDA-MB-231 cells, anti-human Fc detection, gMFI; no AMP
# [19] = target: T1, human CD73 expressed on cells (human); assay: flow cytometry, MDA-MB-231 cells, anti-human Fc detection, gMFI; with 1 nM AB680; remark: listed apart in the source
# [20] = target: T1, human CD73 expressed on cells (human); assay: cell-based or functional assay; remark: listed apart in the source
# [21] = target: T1, human CD73 expressed on cells (human); assay: flow cytometry, MDA-MB-231 cells, anti-human Fc detection, gMFI; with 10 µM AMP; remark: listed apart in the source
# [22] = target: T1, human CD73 expressed on cells (human); assay: flow cytometry, MDA-MB-231 cells, anti-human Fc detection, gMFI; with 10 nM AB680; remark: listed apart in the source
binder,measurement,setting,value
B1,EC50,[1],1.25 nM
same,"Cell internalization EC50 (nM), Fab-ZAP saporin assay, MDA-MB-231",[2],0.06 nM
same,IC50,[3],8.48 nM
same,IC50,[4],0.1 nM
same,IC50,[5],0.16 nM
same,IC50,[6],0.14 nM
same,IC50,[7],0.12 nM
same,IC50,[8],1.54 nM
same,IC50,[9],0.048 nM
same,fold reduction of binding at high AMP concentration,[10],2 fold
same,IC50,[11],1.39 nM
same,IC50,[12],0.1 nM
same,IC50,[13],4.19 nM
same,Cell free CD73 inhibition IC50,[14],> 100 nM
same,"% CD73 receptor internalization, MDA-MB-231",[15],> 70%
same,"CD73 inhibition, human PBMCs, 3 h IC50 [nM]",[15],2.85 nM
same,"CD73 inhibition, human PBMCs, 3 h median IC50 [nM]",[15],9.27 nM
same,"CD73 inhibition, human PBMCs, 24 h IC50 [nM]",[15],44.2 nM
same,"CD73 inhibition, human PBMCs, 24 h median IC50 [nM]",[15],29.9 nM
same,"Cell internalization EC50 (nM), Fab-ZAP saporin assay, MDA-MB-231",[15],0.055 nM
same,"Cell-based CD73 inhibition IC50 (nM), MDA-MB-231 cells",[15],3.82 nM
same,"PBMC activation (CD25+), 30 µM AMP EC50 [nM]",[15],576 nM
same,"PBMC activation, CD4+CD25+ EC50 [nM] (median, n = 3)",[15],28 nM
same,"PBMC activation, CD8+CD25+ EC50 [nM]",[15],932 nM
same,"PBMC activation, CD8+CD25+ EC50 [nM] (median, n = 3)",[15],84 nM
same,"PBMC activation, CD8+Granzyme B+ EC50 [nM] (median, n = 3)",[15],83 nM
same,"PBMC activation, CD8+granzyme B+ EC50 [nM]",[15],63.1 nM
same,cell-based CD73 enzyme inhibition IC50 (MDA-MB-231 cells),[15],1.16 nM
same,"inhibition of adenosine production (AMP conversion by CellTiter-Glo), human PBMCs, EC50 [nM]",[15],10 nM
same,IC50,[16],0.09 nM
same,IC50,[17],0.2 nM
same,IC50,[18],0.025 nM
same,IC50,[19],0.88 nM
same,"% CD73 receptor internalization, MDA-MB-231",[20],> 60%
same,IC50,[21],0.12 nM
same,IC50,[22],2.59 nM
